{
  "source": "FireProtDB (doi:10.1073/pnas.0908565107)",
  "parents": {"B1": {"name": "Alanine--glyoxylate aminotransferase, P21549 (parent)", "chain": "MASHKLLVTPPKALLKPLSIPNQLLLGPGPSNLPPRIMAAGGLQMIGSMSKDMYQIMDEIKEGIQYVFQTRNPLTLVISGSGHCALEAALVNVLEPGDSFLVGANGIWGQRAVDIGERIGARVHPMTKDPGGHYTLQEVEEGLAQHKPVLLFLTHGESSTGVLQPLDGFGELCHRYKCLLLVDSVASLGGTPLYMDRQGIDILYSGSQKALNAPPGTSLISFSDKAKKKMYSRKTKPFSFYLDIKWLANFWGCDDQPRMYHHTIPVISLYSLRESLALIAEQGLENSWRQHREAAAYLHGRLQALGLQLFVKDPALRLPTVTTVAVPAGYDWRDIVSYVIDHFDIEIMGGLGPSTGKVLRIGLLGCNATRENVDRVTEALRAALQHCPKKKL"}},
  "data": [
    {"variants_of": "B1", "settings": "Homo sapiens; pH 7.4; Thermal; DSC; Potassium phosphate 100 mM; structure 1H0C; whole UniProt chain shown", "units": {"Tm": "°C", "change of melting temperature, mutant - wild type (higher = more stable)": "°C"}, "values": [
      {"variant": "G41V", "Tm": 58.3, "change of melting temperature, mutant - wild type (higher = more stable)": -4.1}
    ]}
  ]
}
